# Laboratory results published in patent US20240052063A1, “Binding Proteins 2” (Nucleus Therapeutics Pty. Ltd., priority 2017, published 2024).
# Residue numbers refer to the chain shown, from its start. “Also recorded” adds a separate entry of the source.
# B1: Variant 13: cell penetrating anti-DNA di-scFv variant, amino acid sequence SEQ ID NO: 41 (protein)
# scFv: DIQMTQSPSSLSASLGDRATITCRASKTVSTSSYSYMHWYQQKPGQPPKLLIKYASYLESGVPSRFSGSGSGTDFTLTISSLQPEDAATYYCQHSREFPWTFGGGTKVEIKRADAAPGGGGSGGGGSGGGGSEVQLVESGGGLVQPGGSLRLSCAASGFTFSNYGMHWVRQAPGKGLEWVSYISSGSSTIYYADSVKGRFTISRDNAKNSLYLQMNSLRAEDTAVYYCARRGLLLDYWGQGTTVTVSSASTKGPSVFPLAPLESSGSDIQMTQSPSSLSASLGDRATITCRASKTVSTSSYSYMHWYQQKPGQPPKLLIKYASYLESGVPSRFSGSGSGTDFTLTISSLQPEDAATYYCQHSREFPWTFGGGTKVEIKRADAAPGGGGSGGGGSGGGGSEVQLVESGGGLVQPGGSLRLSCAASGFTFSNYGMHWVRQAPGKGLEWVSYISSGSSTIYYADSVKGRFTISRDNAKNSLYLQMNSLRAEDTAVYYCARRGLLLDYWGQGTTVTVSS
# modifications: Variant 13
# B2: Variant 15: cell penetrating anti-DNA di-scFv variant, amino acid sequence SEQ ID NO: 43 (protein)
# scFv: B1 scFv with L143D, Q145K, G174E, A207S, S210T, L410D, Q412K, G441E, A474S, S477T
# modifications: Variant 15
# B3: Variant 10: cell penetrating anti-DNA di-scFv variant, amino acid sequence SEQ ID NO: 38 (protein)
# scFv: DIQMTQSPSSLSASVGDRVTITCRASKSVSTSSYSYMHWYQQKPGKAPKLLIKYASYLESGVPSRFSGSGSGTDFTLTISSLQPEDFATYYCQHSREFPWTFGQGTKVEIKRADAAPGGGGSGGGGSGGGGSEVQLVESGGGLVQPGGSLRLSCAASGFTFSNYGMHWVRQAPGKGLEWVSYISSSSSTIYYADSVKGRFTISRDNAKNSLYLQMNSLRAEDTAVYYCARRGLLLDYWGQGTTVTVSSASTKGPSVFPLAPLESSGSDIQMTQSPSSLSASVGDRVTITCRASKSVSTSSYSYMHWYQQKPGKAPKLLIKYASYLESGVPSRFSGSGSGTDFTLTISSLQPEDFATYYCQHSREFPWTFGQGTKVEIKRADAAPGGGGSGGGGSGGGGSEVQLVESGGGLVQPGGSLRLSCAASGFTFSNYGMHWVRQAPGKGLEWVSYISSSSSTIYYADSVKGRFTISRDNAKNSLYLQMNSLRAEDTAVYYCARRGLLLDYWGQGTTVTVSS
# modifications: Variant 10
# B4: Variant 11: cell penetrating anti-DNA di-scFv variant, amino acid sequence SEQ ID NO: 39 (protein)
# scFv: B3 scFv with L143V, G174E, A207S, S210T, L410V, G441E, A474S, S477T
# modifications: Variant 11
# B5: Variant 16: cell penetrating anti-DNA di-scFv variant, amino acid sequence SEQ ID NO: 44 (protein)
# scFv: B3 scFv with S28T, S186G, S295T, S453G
# modifications: Variant 16
# Experiments:
# [1] = tested on: HDR-proficient DLD1 cells; test: Selectivity of combination therapy in HDR-proficient cells; type: cell-based; settings: 5 nM olaparib, 10 μM di-scFv, alone or combined
# Experimental: Homology-directed repair (HDR) deficient BRCA2-DLD1 cells and PTEN-U251 cells were treated with control, 5 nM olaparib, 10 μM di-scFv, or 10 μM di-scFv+5 nM olaparib. Surviving fraction was determined by colony formation assay.
# It was then determined whether the combination of di-scFv and olaparib is simply universally cytotoxic, regardless of DNA repair status. To evaluate this possibility, HDR-proficient DLD1 cells were treated with the above regimen to confirm selectivity of combination therapy to HDR-deficient malignant cells.
# [2] = tested on: PTEN-deficient U87 human glioma cells; test: Cell viability by Trypan blue exclusion assay and light microscopy; type: cell-based; settings: PTEN-deficient U87, 7 days after treatment, FIG. 9
# Experimental: Cell viability of PTEN-deficient U87 human glioma cells was also assessed following treatment with control media or media containing Variants 10, 13, 15, or 16. Cell viability was determined 7 days after treatment using Trypan blue exclusion assay and by direct visualization of cell morphology by light microscopy.
# [3] = tested on: human GBM cancer stem cells (CSCs) grown as tumour spheres; test: GBM cancer stem cell tumour spheres: penetration and sphere volume; type: cell-based; settings: listed as di-scFv (SEQ ID NO: 41)
# Experimental: GBM cancer stem cells extracted from primary human GBM tumours from patients and grown as spheres were treated with control or di-scFv (SEQ ID NO: 41), and the effect of dose and incubation time on reduction of sphere volume was evaluated by confocal micrographs of DX1-rhodamine cellular penetration into GBM cells. Tumour spheres are recognised as a useful tool for pre-clinical studies as they retain tumour heterogeneity and more closely represent the original patient tumour.
# [4] = tested on: BRCA2-proficient DLD1 colon cancer cells; test: Cell viability by Trypan blue exclusion assay, BRCA2-proficient cells; type: cell-based; settings: BRCA2-proficient DLD1, 7 days, FIG. 10
# Experimental: (§1) Next, a matched pair of BRCA2-proficient and deficient DLD1 colon cancer cells was treated with control media or media containing Variants 10, 13, 15, or 16. Cell viability was determined 7 days later by Trypan blue exclusion assay and by direct visualization of cell morphology by light microscopy. […] Representative light microscope images shown the changes in morphology in the BRCA2-deficient cancer cells treated with the variants are shown in FIG. 10, Panel A. Quantitative analysis of the cell survival by Trypan blue exclusion assay is shown in FIG. 10, Panel B.
# [5] = tested on: BRCA2-deficient DLD1 colon cancer cells; test: Phospho-53BP1 foci accumulation, BRCA2-deficient cells; type: cell-based; settings: FIG. 17
# Experimental: (§2) A matched pair of BRCA2-proficient and deficient DLD1 colon cancer cells and PTEN-proficient and deficient U251 human glioma cells were treated with control media or media containing 10 μM di-scFv variant 13 (SEQ ID NO: 41), 5 nM olaparib, or combination treatment.
# [6] = tested on: GBM cells extracted from human GBM tumours (intracranial); test: Orthotopic mouse model of GBM; type: in vivo
# Excerpt: An orthotopic mouse model of GBM was generated by intracranial injection of GBM cells extracted from human GBM tumours.
# [7] = tested on: BRCA2-deficient DLD1 colon cancer cells; test: Cell viability by Trypan blue exclusion assay, BRCA2-deficient cells; type: cell-based; settings: BRCA2-deficient DLD1, 7 days, FIG. 10
# Experimental: as §1
# [8] = tested on: PTEN-deficient U251 human glioma cells; test: Phospho-53BP1 foci accumulation (DNA damage), PTEN-deficient cells; type: cell-based
# Experimental: A matched pair of PTEN-proficient and deficient U251 human glioma cells were treated with control media or media containing Variant 10, 11, 13, 15, or 16 for twenty-four hours. Cells were then washed, fixed, blocked, and then probed with an anti-phospho-53BP1 antibody overnight. Cells were then washed and incubated with an AlexaFluor555-conjugated secondary antibody. Finally, cells were washed, counterstained with DAPI, and visualized under a fluorescence microscope. Images were saved and evaluated by CellProfiler to determine mean number of phospho-53BP1 foci per cell.
# as §2
# [9] = tested on: DLD1 colon cancer cells; test: Alkaline phosphatase-based survey of nuclear penetration; type: cell-based; settings: DLD1 cells treated one hour; FIG. 5
# [10] = tested on: DLD-1 cells; test: Nuclear penetration by protein L immunostain of fixed cells; type: cell-based; settings: FIG. 11, listed as di-scFv (SEQ ID NO: 41)
# Experimental: (§3) DLD-1 and MCF-7 cells were treated with control or di-scFv (SEQ ID NO: 41), and nuclear penetration was evaluated by protein L immunostain of fixed cells.
# [11] = tested on: MCF-7 cells; test: as above; type: cell-based; settings: FIG. 12, listed as di-scFv (SEQ ID NO: 41)
# Experimental: as §3
# [12] = tested on: Primary human glioblastoma (GBM) cancer cells; test: Percentage of live cells by trypan blue staining; type: cell-based; settings: seven primary human GBM tumour explants, FIG. 14; listed as di-scFv (SEQ ID NO: 41)
# Experimental: Primary human glioblastoma (GBM) cancer cells extracted from primary human GBM tumours from patients were treated with control or di-scFv (SEQ ID NO: 41), and percentage of live cells was evaluated by trypan blue staining.
# [13] = PTEN-deficient U251, twenty-four hours, FIG. 8
Molecule,cell death [1],cell viability relative to control treated cells [2],cell viability (toxicity) [4],cell viability (cell killing) [7],"mean number of phospho-53BP1 foci per cell [8, 13]",nuclear penetration (histogram of cell counts versus nuclear staining intensity) relative to the yeast prototype [9],other results
"O=C(c1cc(Cc2n[nH]c(=O)c3ccccc23)ccc1F)N1CCN(C(=O)C2CC2)CC1 [olaparib, reference compound]",remain resistant,,,,,,
B1,No effect on cell death,caused reductions in cell viability,not toxic,killed by the variants,increased the number of foci,notable right shift and narrowing of distributions relative to the yeast prototype,"cellular penetration into GBM spheres ([3]; confocal micrographs, FIG. 15A): demonstrated cellular penetration in GBM spheres; also recorded: penetrates human glioblastoma spheres; sphere volume ([3]; effect of dose and incubation time, FIG. 15B, C): reduced sphere volume in dose-dependent and time-dependant manner; also recorded: reduces sphere volume in a time-dependent (B) and dose-dependent (C) manner; mean number of phospho-53BP1 foci per cell ([5]; BRCA2-deficient DLD1, 10 μM di-scFv, 5 nM olaparib): increased the number of phospho-53BP1 foci; percentage of P53BP1-positive cells ([5]; HDR-deficient DLD1, 24 hour treatment): increased; incidence of apoptosis in tumours (TUNEL staining) ([6]; FIG. 16B): increased incidence of apoptosis; toxicity or weight loss associated with treatment ([6]; body weight profile, FIG. 16D): No toxicity or weight loss; median survival longer than controls ([6]; controls median 72 days): more than 20%; mean survival ([6]; group of 7 mice, FIG. 16E): 83 days; median survival ([6]; group of 7 mice, FIG. 16E): 87 days; di-scFv in adjacent normal brain cells (protein L immunostaining) ([6]; normal brain, FIG. 16C): not evident; crossing of the blood brain barrier ([6]; suggested by tumour size reduction and TUNEL staining): successfully crossed the blood brain barrier; reduction of glioblastoma tumour size versus control mice ([6]; tail vein injection, brain sections, FIG. 16A): more than 40%; di-scFv in GBM tumour cells (protein L immunostaining) ([6]; tumour tissue, FIG. 16C): detected in the nuclei of GBM tumour cells; percentage of P53BP1-positive cells ([8]; HDR-deficient U251, 24 hour treatment, FIG. 17): increased; mean number of phospho-53BP1 foci per cell ([8]; PTEN-deficient U251, 10 μM di-scFv, 5 nM olaparib, FIG. 17): increased the number of phospho-53BP1 foci; nuclear penetration [10]: successfully penetrated; also recorded: penetrates HDR deficient DLD-1 colon cancer cell nuclei; nuclear penetration [11]: successfully penetrated; also recorded: penetrates HDR deficient MCF-7 breast cancer cell nuclei; cancer cell death (percentage of live cells) [12]: Five of the seven glioblastoma tumour explants treated with di-scFv (SEQ ID NO: 41) showed significant cancer cell death; also recorded: kills primary human glioblastoma cells"
B2,,caused reductions in cell viability,not toxic,killed by the variants,increased the number of foci,notable right shift and narrowing of distributions relative to the yeast prototype,
B3,,caused reductions in cell viability,not toxic,killed by the variants,increased the number of foci,,
B4,,,,,increased the number of foci,,
B5,,caused reductions in cell viability,not toxic,killed by the variants,increased the number of foci,,
